Experimental findings from patent US20240150495A1 (F STAR BIOTECHNOLOGISCHE FORSCHUNGS UND ENTWICKLUNGSGES M B …, published 2024) are described below.

The assay addresses T1, Fcab-wt (human, UniProt P01857-1 99-330 = IgG part).
T1 construct: Negative control
Put plainly: ELISA on coated human ανβ3 integrin, HRP labelled protein A.

Protocol: For the integrin ELISA, 1 ug/ml human ανβ3 integrin in PBS was coated over night on Maxisorp plates and blocked for 1 h with BSA in PBS containing 1 mM Ca2+. […] Bound Fcabs were detected by HRP labelled protein A and TMB as a substrate.

B1: human ανβ3 integrin (Chemicon) (receptor)
chain 1: FNLDVDSPAEYSGPEGSYFGFAVDFFVPSASSRMFLLVGAPKANTTQPGIVEGGQVLKCDWSSTRRCQPIEFDATGNRDYAKDDPLEFKSHQWFGASVRSKQDKILACAPLYHWRTEMKQEREPVGTCFLQDGTKTVEYAPCRSQDIDADGQGFCQGGFSIDFTKADRVLLGGPGSFYWQGQLISDQVAEIVSKYDPNVYSIKYNNQLATRTAQAIFDDSYLGYSVAVGDFNGDGIDDFVSGVPRAARTLGMVYIYDGKNMSSLYNFTGEQMAAYFGFSVAATDINGDDYADVFIGAPLFMDRGSDGKLQEVGQVSVSLQRASGDFQTTKLNGFEVFARFGSAIAPLGDLDQDGFNDIAIAAPYGGEDKKGIVYIFNGRSTGLNAVPSQILEGQWAARSMPPSFGYSMKGATDIDKNGYPDLIVGAFGVDRAILYRARPVITVNAGLEVYPSILNQDNKTCSLPGTALKVSCFNVRFCLKADGKGVLPRKLNFQVELLLDKLKQKGAIRRALFLYSRSPSHSKNMTISRGGLMQCEELIAYLRDESEFRDKLTPITIFMEYRLDYRTAADTTGLQPILNQFTPANISRQAHILLDCGEDNVCKPKLEVSVDSDQKKIYIGDDNPLTLIVKAQNQGEGAYEAELIVSIPLQADFIGVVRNNEALARLSCAFKTENQTRQVVCDLGNPMKAGTQLLAGLRFSVHQQSEMDTSVKFDLQIQSSNLFDKVSPVVSHKVDLAVLAAVEIRGVSSPDHVFLPIPNWEHKENPETEEDVGPVVQHIYELRNNGPSSFSKAMLHLQWPYKYNNNTLLYILHYDIDGPMNCTSDMEINPLRIKISSLQTTEKNDTVAGQGERDHLITKRDLALSEGDIHTLGCGVAQCLKIVCQVGRLDRGKSAILYVKSLLWTETFMNKENQNHSYSLKSSASFNVIEFPYKNLPIEDITNSTLVTTNVTWGIQPAPMPVPVWVIILAVLAGLLLLAVLVFVMYRMGFFKRVRPPQEEQEREQLQPHENGEGNSET
chain 2: GPNICTTRGVSSCQQCLAVSPMCAWCSDEALPLGSPRCDLKENLLKDNCAPESIEFPVSEARVLEDRPLSDKGSGDSSQVTQVSPQRIALRLRPDDSKNFSIQVRQVEDYPVDIYYLMDLSYSMKDDLWSIQNLGTKLATQMRKLTSNLRIGFGAFVDKPVSPYMYISPPEALENPCYDMKTTCLPMFGYKHVLTLTDQVTRFNEEVKKQSVSRNRDAPEGGFDAIMQATVCDEKIGWRNDASHLLVFTTDAKTHIALDGRLAGIVQPNDGQCHVGSDNHYSASTTMDYPSLGLMTEKLSQKNINLIFAVTENVVNLYQNYSELIPGTTVGVLSMDSSNVLQLIVDAYGKIRSKVELEVRDLPEELSLSFNATCLNNEVIPGLKSCMGLKIGDTVSFSIEAKVRGCPQEKEKSFTIKPVGFKDSLIVQVTFDCDCACQAQAEPNSHRCNNGNGTFECGVCRCGPGWLGSQCECSEEDYRPSQQDECSPREGQPVCSQRGECLCGQCVCHSSDFGKITGKYCECDDFSCVRYKGEMCSGHGQCSCGDCLCDSDWTGYYCNCTTRTDTCMSSNGLLCSGRGKCECGSCVCIQPGSYGDTCEKCPTCPDACTFKKECVECKKFDRGALHDENTCNRYCRDEIESVKELKDTGKDAVNCTYKNEDDCVVRFQYYEDSSGKSILYVVEEPECPKGPDILVVLLSVMGAILLIGLAALLIWKLLITIHDRKEFAKFEEERARAKWDTANNPLYKEATSTFTNITYRGT
notes: Bought from Chemicon; coated at 1 ug/ml on Maxisorp plates; also called alpha-v beta-3 integrin
For B1, the binding result is given as “no binding (tested: 10 ug/ml)”.
